Each block holds one binder with its values, some of them ahead of it.
Columns and labels:
[1] = biological target: T1, Recombinant Human DLL4 (R&D Systems Cat#1506-D4/CF) (human, UniProt Q9NR61 27-524); test: MSD ECL multi-spot, Fab 0.74 uM, blank 692;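 note: blank spot per well as comparator with Hit at signal to blank ratio of 4 or more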
T1 construct: Bought recombinant protein; also called rHuman DLL4; delta-like protein 4

[2] = biological target: T2, rHuman Notch-1/Fc Chimera, CF (R&D Systems Cat#3647-TK) (human, UniProt P46531 19-526); test: MSD ECL multi-spot, Fab 0.74 uM, blank 692;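 note: blank spot per well as comparator with Hit at signal to blank ratio of 4 or more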
T2 construct: Bought Fc chimera; Fc part of the bought chimera not given

[3] = biological target: T3, rHuman P-Cadherin/Fc Chimera, CF (R&D Systems Cat#861-PC) (human, UniProt P22223 108-654); test: MSD ECL multi-spot, Fab 0.74 uM, blank 692;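 note: blank spot per well as comparator with Hit at signal to blank ratio of 4 or more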
T3 construct: Bought Fc chimera; Fc part of the bought chimera not given

[4] = biological target: T4, rHuman CD44/Fc Chimera, CF (R&D Systems Cat#3660-CD) (human, UniProt P16070 21-220); test: MSD ECL multi-spot, Fab 0.74 uM, blank 692;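 note: blank spot per well as comparator with Hit at signal to blank ratio of 4 or more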
T4 construct: Bought Fc chimera; Fc part of the bought chimera not given

[5] = biological target: T5, rHuman EGF R/Fc Chimera, CF (R&D Systems Cat#344-ER) (human, UniProt P00533 25-645); test: MSD ECL multi-spot, Fab 0.74 uM, blank 692;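 note: blank spot per well as comparator with Hit at signal to blank ratio of 4 or more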
T5 construct: Bought Fc chimera; Fc part of the bought chimera not given

[6] = biological target: T6, rHuman IGF-1 sR (insulin-like growth factor-1 soluble receptor), CF (R&D Systems Cat#391-GR) (human, UniProt P08069 31-932); test: MSD ECL multi-spot, Fab 0.74 uM, blank 692;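 note: blank spot per well as comparator with Hit at signal to blank ratio of 4 or more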
T6 construct: Bought soluble receptor; also called IGF-R1

[7] = biological target: T7, rHuman HGF R/c-MET/Fc Chimera, CF (R&D Systems Cat#358-MT/CF) (human, UniProt P08581 25-932); test: MSD ECL multi-spot, Fab 0.74 uM, blank 692
T7 construct: Bought Fc chimera; also called HGF R/Fc; Fc part of the bought chimera not given

[8] = biological target: T8, rHuman ErbB2/Fc Chimera, CF (R&D Systems Cat#1129-ER) (human, UniProt P04626 23-652); test: MSD ECL multi-spot, Fab 0.74 uM, blank 692
T8 construct: Bought Fc chimera; also called HER2/neu; Fc part of the bought chimera not given

[9] = biological target: T9, rHuman Erythropoietin R/Fc Chimera, CF (R&D Systems Cat#963-ER) (human, UniProt P19235 25-250); test: MSD ECL multi-spot, Fab 0.74 uM, blank 692
T9 construct: Bought Fc chimera; also called EPO R/Fc; EPOR; Fc part of the bought chimera not given
T9 sequence: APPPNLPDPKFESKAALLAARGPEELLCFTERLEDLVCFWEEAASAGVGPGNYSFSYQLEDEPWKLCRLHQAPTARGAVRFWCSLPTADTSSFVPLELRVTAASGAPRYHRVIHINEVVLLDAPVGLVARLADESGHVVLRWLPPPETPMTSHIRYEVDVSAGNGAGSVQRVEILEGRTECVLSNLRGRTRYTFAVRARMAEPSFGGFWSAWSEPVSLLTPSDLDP

[10] = biological target: T10, rHuman Erythropoietin R/Fc Chimera, CF (R&D Systems, Cat#963-ER) (human, UniProt P19235 25-250); test: ECL (MSD) Fab titration; binding affinity estimated from the 50% binding signal
T10 construct: Bought chimera; also called EPO R/Fc; Epo R; Fc part of the bought chimera not given
T10 sequence: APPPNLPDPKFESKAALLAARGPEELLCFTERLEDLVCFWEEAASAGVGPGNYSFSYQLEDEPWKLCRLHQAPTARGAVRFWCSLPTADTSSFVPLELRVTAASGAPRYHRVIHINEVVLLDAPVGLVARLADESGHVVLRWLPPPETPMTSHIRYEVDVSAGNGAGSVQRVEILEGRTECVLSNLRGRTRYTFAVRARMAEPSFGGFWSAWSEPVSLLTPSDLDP

[11] = biological target: T1, Recombinant Human DLL4 (R&D Systems …); test: MSD ECL multi-spot, Fab 0.21 uM, blank 529; row label 3 may be swapped with 4;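 note: blank spot per well as comparator with Hit at signal to blank ratio of 4 or more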
[12] = biological target: T2, rHuman Notch-1/Fc Chimera, CF (R&D …); test: as above
[13] = biological target: T3, rHuman P-Cadherin/Fc Chimera, CF (R&D …); test: as above
[14] = biological target: T4, rHuman CD44/Fc Chimera, CF (R&D Systems …); test: as above
[15] = biological target: T5, rHuman EGF R/Fc Chimera, CF (R&D …); test: as above
[16] = biological target: T6, rHuman IGF-1 sR (insulin-like growth …); test: as above
[17] = biological target: T7, rHuman HGF R/c-MET/Fc Chimera, CF (R&D …); test: as above
[18] = biological target: T8, rHuman ErbB2/Fc Chimera, CF (R&D …); test: as above
[19] = biological target: T9, rHuman Erythropoietin R/Fc Chimera, CF …; test: as above
[20] = biological target: T11, rHuman Notch-1/Fc Chimera, CF (R&D Systems Cat#3647-TK) (human, UniProt P46531 19-526); test: ECL (MSD multi-spot), Fab 930 nM; blank 1206
T11 construct: Bought Fc chimera; Fc part of the bought chimera not given

[21] = biological target: T12, rHuman Erythropoietin R/Fc Chimera, CF (R&D Systems Cat#963-ER) (human, UniProt P19235 25-250); test: ECL (MSD multi-spot), Fab 930 nM; blank 1206
T12 construct: Bought Fc chimera; also called EPO R/Fc; Epo R; Fc part of the bought chimera not given
T12 sequence: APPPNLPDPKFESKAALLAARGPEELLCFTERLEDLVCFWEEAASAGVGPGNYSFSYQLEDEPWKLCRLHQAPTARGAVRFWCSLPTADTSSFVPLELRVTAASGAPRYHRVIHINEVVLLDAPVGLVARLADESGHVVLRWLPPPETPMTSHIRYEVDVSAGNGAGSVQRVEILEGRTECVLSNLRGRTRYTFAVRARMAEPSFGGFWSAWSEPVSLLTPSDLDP

[22] = biological target: T13, Recombinant Human DLL4 (R&D Systems Cat#1506-D4/CF) (human, UniProt Q9NR61 27-524); test: ECL (MSD multi-spot), Fab 930 nM; blank 1206
T13 construct: Bought recombinant protein; also called delta-like protein 4

[23] = biological target: T14, rHuman CD44/Fc Chimera, CF (R&D Systems Cat#3660-CD) (human, UniProt P16070 21-220); test: ECL (MSD multi-spot), Fab 930 nM; blank 1206
T14 construct: Bought Fc chimera; Fc part of the bought chimera not given

[24] = biological target: T15, rHuman ErbB2/Fc Chimera, CF (R&D Systems Cat#1129-ER) (human, UniProt P04626 23-652); test: ECL (MSD multi-spot), Fab 930 nM; blank 1206
T15 construct: Bought Fc chimera; also called human epidermal growth factor 2 receptor; HER2/neu; Fc part of the bought chimera not given

[25] = biological target: T11, rHuman Notch-1/Fc Chimera, CF (R&D …); test: ECL (MSD multi-spot), Fab 232.5 nM; blank 460
[26] = biological target: T12, rHuman Erythropoietin R/Fc Chimera, CF …; test: ECL (MSD multi-spot), Fab 232.5 nM; blank 460
[27] = biological target: T13, Recombinant Human DLL4 (R&D Systems …); test: ECL (MSD multi-spot), Fab 232.5 nM; blank 460
[28] = biological target: T14, rHuman CD44/Fc Chimera, CF (R&D Systems …); test: ECL (MSD multi-spot), Fab 232.5 nM; blank 460
[29] = biological target: T15, rHuman ErbB2/Fc Chimera, CF (R&D …); test: ECL (MSD multi-spot), Fab 232.5 nM; blank 460
[30] = biological target: T11, rHuman Notch-1/Fc Chimera, CF (R&D …); test: ECL (MSD multi-spot), Fab 58.1 nM; blank 225
[31] = biological target: T12, rHuman Erythropoietin R/Fc Chimera, CF …; test: ECL (MSD multi-spot), Fab 58.1 nM; blank 225
[32] = biological target: T13, Recombinant Human DLL4 (R&D Systems …); test: ECL (MSD multi-spot), Fab 58.1 nM; blank 225
[33] = biological target: T14, rHuman CD44/Fc Chimera, CF (R&D Systems …); test: ECL (MSD multi-spot), Fab 58.1 nM; blank 225
[34] = biological target: T15, rHuman ErbB2/Fc Chimera, CF (R&D …); test: ECL (MSD multi-spot), Fab 58.1 nM; blank 225
[35] = biological target: T11, rHuman Notch-1/Fc Chimera, CF (R&D …); test: ECL (MSD multi-spot), Fab 14.5 nM; blank 117
[36] = biological target: T12, rHuman Erythropoietin R/Fc Chimera, CF …; test: ECL (MSD multi-spot), Fab 14.5 nM; blank 117
[37] = biological target: T13, Recombinant Human DLL4 (R&D Systems …); test: ECL (MSD multi-spot), Fab 14.5 nM; blank 117
[38] = biological target: T14, rHuman CD44/Fc Chimera, CF (R&D Systems …); test: ECL (MSD multi-spot), Fab 14.5 nM; blank 117
[39] = biological target: T15, rHuman ErbB2/Fc Chimera, CF (R&D …); test: ECL (MSD multi-spot), Fab 14.5 nM; blank 117

B1: Fab VH1-46_IGHD3-10*01_IGHJ4*01 & B3_IGKJ1*01 (Fab, V domains shown)
VH: QVQLVQSGAEVKKPGASVKVSCKASGYTFTSYYMHWVRQAPGQGLEWMGIINPSGGSTSYAQKFQGRVTMTRDTSTSTVYMELSSLRSEDTAVYYCAREYYYGSGSYYNDYFDYWGQGTLVTVSS
VL: not shown
notes: Expressed in E. coli as Fab: heavy chain with CH1 plus Flag and His tags from Plasmid A, kappa light chain constant region from Plasmid C; also called Fab No. 5
- ECL signal [1]: 1000
- ECL signal [2]: 980
- ECL signal [3]: 1160
- ECL signal [4]: 682
- ECL signal [5]: 652
- ECL signal [6]: 593
- ECL signal [7]: 633
- ECL signal [8]: 562
- ECL signal [9]: 4110

B2: Fab VH1-46_IGHD3-10*01_IGHJ4*01 & B3_IGKJ1*01 (Fab, V domains shown)
VH: QVQLVQSGAEVKKPGASVKVSCKASGYTFTSYYMHWVRQAPGQGLEWMGIINPSGGSTSYAQKFQGRVTMTRDTSTSTVYMELSSLRSEDTAVYYCAREYYYGSGSYYNDYFDYWGQGTLVTVSS
VL: not shown
notes: Fab from E. coli; VH joined to CH1 with Flag and His tags (Plasmid A), VL to kappa CL (Plasmid C)
- Kd [10]: ~100 nM

Now from value to binder:

- ECL signal [11]: 1070
- ECL signal [12]: 949
- ECL signal [13]: 890
- ECL signal [14]: 837
- ECL signal [15]: 815
- ECL signal [16]: 763
- ECL signal [17]: 744
- ECL signal [18]: 9230
- ECL signal [19]: 1120
B3: Fab VH6-1_IGHD3-3*01_IGHJ4*01 & V4-3_IGLJ4*01 (Fab, V domains shown)
VH: QVQLQQSGPGLVKPSQTLSLTCAISGDSVSSNSAAWNWIRQSPSRGLEWLGRTYYRSKWYNDYAVSVKSRITINPDTSKNQFSLQLNSVTPEDTAVYYCAREYYDFWSGYYTDYFDYWGQGTLVTVSS
VL: QPVLTQPTSLSASPGASARLTCTLRSGINLGSYRIFWYQQKPESPPRYLLSYYSDSSKHQGSGVPSRFSGSKDASSNAGILVISGLQSEDEADYYCMIWHSSASFVFGGGTQLIIL
notes: Expressed in E. coli as Fab: heavy chain with CH1 plus Flag and His tags from Plasmid A, lambda light chain constant region from Plasmid E; also called Fab No. 3

- ECL signal [20]: 2210 ECL signal
- ECL signal [21]: 3010 ECL signal
- ECL signal [22]: 8160 ECL signal
- ECL signal [23]: 1920 ECL signal
- ECL signal [24]: 2220 ECL signal
- ECL signal [25]: 778 ECL signal
- ECL signal [26]: 1470 ECL signal
- ECL signal [27]: 3590 ECL signal
- ECL signal [28]: 607 ECL signal
- ECL signal [29]: 779 ECL signal
- ECL signal [30]: 388 ECL signal
- ECL signal [31]: 829 ECL signal
- ECL signal [32]: 1880 ECL signal
- ECL signal [33]: 375 ECL signal
- ECL signal [34]: 322 ECL signal
- ECL signal [35]: 317 ECL signal
- ECL signal [36]: 660 ECL signal
- ECL signal [37]: 1150 ECL signal
- ECL signal [38]: 212 ECL signal
- ECL signal [39]: 274 ECL signal
B4: Fab VH1-46_IGHD6-13*01_IGHJ4*01 & O1_IGKJ1*01 (Fab, V domains shown)
VH: QVQLVQSGAEVKKPGASVKVSCKASGYTFTSYYMHWVRQAPGQGLEWMGIINPSGGSTSYAQKFQGRVTMTRDTSTSTVYMELSSLRSEDTAVYYCAREGYSSSWYDYFDYWGQGTLVTVSS
VL: DIVMTQTPLSLPVTPGEPASISCRSSQSLLDSDDGNTYLDWYLQKPGQSPQLLIYTLSYRASGVPDRFSGSGSGTDFTLKISRVEAEDVGVYYCMQRIEFPSWTFGQGTKVEIK
notes: Tested as a Fab expressed in E. coli: heavy chain with CH1 plus Flag and His tags from Plasmid A, kappa constant region from Plasmid C

— US20120058906A1 (published 2012)
